Laboratory results taken from patent US20250281611A1 (BIOSCEPTRE AUST, published 2025).

T1: CD19 (UniProt P15391 20-556, limits assumed)
T1 construct: whole, on cells; also called CD19 on JeKo-1
T1 sequence (looked up): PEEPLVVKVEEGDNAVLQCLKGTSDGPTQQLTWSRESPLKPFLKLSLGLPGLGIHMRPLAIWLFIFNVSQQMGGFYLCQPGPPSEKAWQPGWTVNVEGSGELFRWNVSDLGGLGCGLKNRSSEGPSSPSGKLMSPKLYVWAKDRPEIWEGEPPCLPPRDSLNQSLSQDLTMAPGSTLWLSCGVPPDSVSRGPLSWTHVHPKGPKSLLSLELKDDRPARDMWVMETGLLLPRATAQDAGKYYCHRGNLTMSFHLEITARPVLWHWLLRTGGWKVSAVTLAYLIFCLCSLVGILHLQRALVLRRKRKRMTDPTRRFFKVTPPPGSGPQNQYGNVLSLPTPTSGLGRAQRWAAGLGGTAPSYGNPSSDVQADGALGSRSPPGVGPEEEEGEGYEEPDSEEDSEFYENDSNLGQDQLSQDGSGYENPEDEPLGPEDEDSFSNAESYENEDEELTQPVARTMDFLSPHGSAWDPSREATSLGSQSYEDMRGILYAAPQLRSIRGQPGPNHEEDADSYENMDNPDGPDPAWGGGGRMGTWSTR

B1: CD19 BRIDGE variant B6 (Fab)
heavy: EVQLVESGGGLVKPGGSLKLSCAASGYTFTSYVMHWVRQAPGKGLEWIGYINPYNDGTKYNEKFQGRVTISSDKSISTAYMELSSLRSEDTAMYYCARGTYYYGTRVFDYWGQGTLVTVSSASTKGPSVFPLAPSSKSTSGGTAALGCLVKDYFPEPVTVSWNSGALTSGVHTFPAVLQSSGLYSLSSVVTVPSSSLGTQTYICNVNHKPSNTKVDKKVEPKSCHHHHHH
light: GHNYTTRNILPGLNITSTFHKTSGSGKGGGSEPKSSDKTHTDIVMTQSPATLSLSPGERATLSCRSSKSLQNVNGNTYLYWFQQKPGQSPQLLIYRMSNLNSGVPDRFSGSGSGTEFTLTISSLEPEDFAVYYCMQHLEYPITFGAGTKLEIKRTVAAPSVFIFPPSDEQLKSGTASVVCLLNNFYPREAKVQWKVDNALQSGNSQESVTEQDSKDSTYSLSSTLTLSKADYEKHKVYACEVTHQGLSSPVTKSFNRGEC
B2: CD19 BRIDGE variant B15 (Fab)
heavy: B1 heavy
light: GHNYTTRNILPGLNITSGGGGSEPKSSDKTHTGGGGSDIVMTQSPATLSLSPGERATLSCRSSKSLQNVNGNTYLYWFQQKPGQSPQLLIYRMSNLNSGVPDRFSGSGSGTEFTLTISSLEPEDFAVYYCMQHLEYPITFGAGTKLEIKRTVAAPSVFIFPPSDEQLKSGTASVVCLLNNFYPREAKVQWKVDNALQSGNSQESVTEQDSKDSTYSLSSTLTLSKADYEKHKVYACEVTHQGLSSPVTKSFNRGEC
B3: CD19 BRIDGE variant B12 (Fab)
heavy: B1 heavy
light: GHNYTTRNILPGLNITSTFHKTSGSGKGGGGSEPKSSDKTHTGSDIVMTQSPATLSLSPGERATLSCRSSKSLQNVNGNTYLYWFQQKPGQSPQLLIYRMSNLNSGVPDRFSGSGSGTEFTLTISSLEPEDFAVYYCMQHLEYPITFGAGTKLEIKRTVAAPSVFIFPPSDEQLKSGTASVVCLLNNFYPREAKVQWKVDNALQSGNSQESVTEQDSKDSTYSLSSTLTLSKADYEKHKVYACEVTHQGLSSPVTKSFNRGEC
B4: CD19 BRIDGE variant B11 (Fab)
heavy: B1 heavy
light: GHNYTTRNILPGLNITSTFHKTSGSGKGSEPKSSDKTHTGSDIVMTQSPATLSLSPGERATLSCRSSKSLQNVNGNTYLYWFQQKPGQSPQLLIYRMSNLNSGVPDRFSGSGSGTEFTLTISSLEPEDFAVYYCMQHLEYPITFGAGTKLEIKRTVAAPSVFIFPPSDEQLKSGTASVVCLLNNFYPREAKVQWKVDNALQSGNSQESVTEQDSKDSTYSLSSTLTLSKADYEKHKVYACEVTHQGLSSPVTKSFNRGEC
B5: CD19 BRIDGE variant B8 (Fab, V domains shown)
VH: EVQLVESGGGLVKPGGSLKLSCAASGYTFTSYVMHWVRQAPGKGLEWIGYINPYNDGTKYNEKFQGRVTISSDKSISTAYMELSSLRSEDTAMYYCARGTYYYGTRVFDYWGQGTLVTVSS
VL: DIVMTQSPATLSLSPGERATLSCRSSKSLQNVNGNTYLYWFQQKPGQSPQLLIYRMSNLNSGVPDRFSGSGSGTEFTLTISSLEPEDFAVYYCMQHLEYPITFGAGTKLEIKR
B6: CD19 BRIDGE variant B14 (Fab, V domains shown)
VH: B5 VH
VL: B5 VL
B7: CD19 BRIDGE variant B13 (Fab, V domains shown)
VH: B5 VH
VL: B5 VL
B8: CD19 BRIDGE variant B9 (Fab, V domains shown)
VH: B5 VH
VL: B5 VL

These binders were tested against T1, CD19 (assay: flow cytometry, JeKo-1 cells, bridge at saturating conc., anti-His-FITC detection).
Experimental: (§1) JeKo-1 cells were incubated with different CD19 BRiDGE variants at saturating concentrations. […] The MFI intensity correlates with the number of secondary bound antibodies bound to the CD19 BRiDGE variants that are only detected if they are bound to the JeKo-1 cells. MFI: median fluorescence intensity. BLitz: Bio-Layer interferometry (BLI) technology using HIS-tag identification tips. […] The higher the MFIR, the stronger the binding.

Row | Binder | MFI HisTag FITC
1 | B1 | 3.33
2 | B2 | 2.91
3 | B3 | 3.36
4 | B4 | 3.08
5 | B5 | 3.58
6 | B6 | 3.12
7 | B7 | 2.99
8 | B8 | 3

Each binder was assayed against T1, CD19 (assay: flow cytometry, JeKo-1 cells, anti-His-FITC detection, MFI over no-bridge control).
Experimental: as §1

Row | Binder | MFIR HisTag FITC
9 | B1 | 4.32
10 | B2 | 3.78
11 | B3 | 4.36
12 | B4 | 4
13 | B5 | 4.65
14 | B6 | 4.05
15 | B7 | 3.88
16 | B8 | 3.9

These binders were tested against T2, nfP2X7 CAR 1 (assay: flow cytometry, anti-His-FITC, MFI on EGFR+ (CAR+) over EGFR- (CAR-) T cells).
T2 construct: CAR-positive cells gated by the co-expressed EGFR marker; also called nfP2X7 targeted CAR; nfP2X7 CAR on EGFR+ T cells
Experimental: (§2) nfP2X₇ CAR T cells were incubated with different BRiDGE variants at saturating concentrations. […] The MFI intensity correlates with the number of secondary bound antibodies bound to the BRiDGEs that are only detected if they are bound to the CAR T cells. EGFR was used as a marker gene to detect the CAR expression. Thus, the EGFR+ T cell population was defined as the CAR expressing cells and the EGFR− T cell population was defined as the CAR negative subset. MFI: median fluorescence intensity. EGFR: epidermal growth factor receptor. BLItz: Bio-Layer interferometry (BLI) technology using HIS-tag identification tips. HIS-tag MFI Ratio: relative index that is calculated by the testing condition MFI divided by the control MFI, which corresponds to the MFI measured on EGFR+ T cells (defined as CAR positive cells) divided by the MFI measured on the EGFR− T cells (defined as CAR negative cells). […] The higher the MFIR, the stronger the binding.

Row | Binder | HisTag MFI Ratio of EGFR+/EGFR-
17 | B1 | 4.1
18 | B2 | 4.8
19 | B3 | 4.2
20 | B4 | 4
21 | B5 | 4.4
22 | B6 | 4.5
23 | B7 | 4.1
24 | B8 | 4.1

These binders were tested against T1, CD19 (assay: flow cytometry, JeKo-1 cells, bridge at saturating conc., BIL03s-AF647 detection).
Experimental: as §1

Row | Binder | MFI Bil03 AF647
25 | B1 | 5.29
26 | B2 | 8.58
27 | B3 | 9.08
28 | B4 | 6.43
29 | B5 | 10.6
30 | B6 | 7.27
31 | B7 | 5.28
32 | B8 | 4.82

What follows are binders tested against T1, CD19 (assay: flow cytometry, JeKo-1 cells, BIL03s-AF647 detection, MFI over no-bridge control).
Experimental: as §1

Row | Binder | MFIR BIL03 AF647
33 | B1 | 11.5
34 | B2 | 18.7
35 | B3 | 19.7
36 | B4 | 14
37 | B5 | 23
38 | B6 | 15.8
39 | B7 | 11.5
40 | B8 | 10.5

The binders below were run against T2, nfP2X7 CAR 1 (assay: flow cytometry, anti-His-FITC, MFI on EGFR+ (CAR+) T cells over background 0.44).
Experimental: as §2

Row | Binder | HisTag MFI Ratio (background 0.44)
41 | B1 | 4.5
42 | B2 | 5.9
43 | B3 | 4.8
44 | B4 | 4.5
45 | B5 | 5.8
46 | B6 | 5.5
47 | B7 | 4.8
48 | B8 | 5.3

These binders were tested against T2, nfP2X7 CAR 1 (assay: flow cytometry, nfP2X7 CAR 1 T cells (EGFR+ gate), anti-His-FITC detection).
Experimental: as §2

Row | Binder | MFI HisTag FITC in EGFR+ Population
49 | B1 | 1.99
50 | B2 | 2.61
51 | B3 | 2.12
52 | B4 | 2
53 | B5 | 2.53
54 | B6 | 2.41
55 | B7 | 2.13
56 | B8 | 2.32
